Among the data in publication doi:10.1101/2021.03.16.435614 are Kd values, retold here.

This test has as its target CTD (C-terminal domain) of SOQ1 (SUPPRESSOR OF QUENCHING1), recombinant (Arabidopsis thaliana). As to the kind of experiment: MST.

For “Trx-like domain of SOQ1 (SUPPRESSOR OF QUENCHING1), recombinant (domain or fragment)”, the Kd (commonly the equilibrium constant for the complex coming apart) is 8.76 µM.
